This passage reports R/R0 results from US20220283173A1.

Experiment [1] concerns the target Anti-Mx1-AF488. The experiment is described as follows: competitive TR-FRET; unlabelled MxA at 0.098 (unit µ/mL [sic]) displacing Mx1-L4 from Anti-Mx1-AF488.
The target of experiment [2] is Anti-Mx1-AF488. Nature of the experiment: competitive TR-FRET; unlabelled MxA at 6.250 (unit µ/mL [sic]) displacing Mx1-L4 from Anti-Mx1-AF488.
Experiment [3] addresses Anti-Mx1-AF488. The experiment is described as follows: competitive TR-FRET; unlabelled MxA at 25.000 (unit µ/mL [sic]) displacing Mx1-L4 from Anti-Mx1-AF488. (In general: In TR-FRET formats the signal depends on donor and acceptor labels being close together.)
Experiment [4] deals with Anti-Mx1-AF488. The experiment is described as follows: competitive TR-FRET; unlabelled MxA at 0.024 (unit µ/mL [sic]) displacing Mx1-L4 from Anti-Mx1-AF488.
For experiment [5], the target named is Anti-Mx1-AF488. The experiment is described as follows: competitive TR-FRET; unlabelled MxA at 0.391 (unit µ/mL [sic]) displacing Mx1-L4 from Anti-Mx1-AF488.
The target in experiment [6] is Anti-Mx1-AF488. The experiment is described as follows: competitive TR-FRET; unlabelled MxA at 1.563 (unit µ/mL [sic]) displacing Mx1-L4 from Anti-Mx1-AF488.
The target in experiment [7] is Anti-Mx1-AF488. The experiment is described as follows: competitive TR-FRET; unlabelled MxA at 0.006 (unit µ/mL [sic]) displacing Mx1-L4 from Anti-Mx1-AF488.
In experiment [8] the target is Anti-Mx1-AF488. Nature of the experiment: competitive TR-FRET; unlabelled MxA at 0.000 (no competitor, the reference R0) with Mx1-L4 and Anti-Mx1-AF488.

B1: Human myxovirus resistance protein A (MxA), unlabelled standard (protein)
chain: MVVSEVDIAKADPAAASHPLLLNGDATVAQKNPGSVAENNLCSQYEEKVRPCIDLIDSLRALGVEQDLALPAIAVIGDQSSGKSSVLEALSGVALPRGSGIVTRCPLVLKLKKLVNEDKWRGKVSYQDYEIEISDASEVEKEINKAQNAIAGEGMGISHELITLEISSRDVPDLTLIDLPGITRVAVGNQPADIGYKIKTLIKKYIQRQETISLVVVPSNVDIATTEALSMAQEVDPEGDRTIGILTKPDLVDKGTEDKVVDVVRNLVFHLKKGYMIVKCRGQQEIQDQLSLSEALQREKIFFENHPYFRDLLEEGKATVPCLAEKLTSELITHICKSLPLLENQIKETHQRITEELQKYGVDIPEDENEKMFFLIDKVNAFNQDITALMQGEETVGEEDIRLFTRLRHEFHKWSTIIENNFQEGHKILSRKIQKFENQYRGRELPGFVNYRTFETIVKQQIKALEEPAVDMLHTVTDMVRLAFTDVSIKNFEEFFNLHRTAKSKIEDIRAEQEREGEKLIRLHFQMEQIVYCQDQVYRGALQKVREKELEEEKKKKSWDFGAFQSSSATDSSMEEIFQHLMAYHQEASKRISSHIPLIIQFFMLQTYGQQLQKAMLQLLQDKDTYSWLLKERSDTSDKRKFLKERLARLTQARRRLAQFPG
Take B1: the R/R0 in the experiment with Anti-Mx1-AF488 [1] turned out to be 0.97; with Anti-Mx1-AF488 [2] it was 0.43; with Anti-Mx1-AF488 [3], 0.32; with Anti-Mx1-AF488 [4], 0.99; in the experiment with Anti-Mx1-AF488 [5], 0.89; with Anti-Mx1-AF488 [6], 0.72. For the same molecule, the R/R0 with Anti-Mx1-AF488 [7] was determined as 0.94; in the experiment with Anti-Mx1-AF488 [8], 1.
